According to patent US20110086797A1, “CONTROL OF SPORE GERMINATION” (priority 2007, published 2011):

Test system: B. subtilis peptidoglycan
Test: Peptidoglycan binding (pelleting with insoluble peptidoglycan, SDS-PAGE/Coomassie)
Set-up: species or system Bacillus subtilis
Conditions: for binding to cell wall (result in words): his6-tagged extracellular domain
Description: Peptidoglycan Binding. The C-terminal fragment of PrkC (His6-PASTABs) composed of residues 357-648 was purified using Ni^2+ affinity chromatography with an E. coli strain carrying pIMS40 that overproduces His6-PASTABs. His6-Yycl composed of residues 31-280 was purified using identical methodology using an E. coli strain carrying pIMS36. His6-AcmA composed of residues 243-439 using an E. coli strain carrying pIMS42 and His6-PASTASa composed of residues 378-644 using an E. coli strain carrying pIMS44 were purified using identical methodology. 50 μg of proteins was separately incubated with purified B. subtilis or S. aureus peptidoglycan (˜5 mg) in 20 mM Tris-HCl, 50 mM MgCl2, 500 mM NaCl for 30 min at 4° C. Centrifugation (10 min, 15 k) was employed to remove the supernatant (soluble fraction) and the pellet was washed twice, then resuspended it in 2% SDS and incubated at RT for 1 h. Bound fraction (insoluble fraction) was recovered by removing the […] by centrifugation. Fractions consisting of unbound soluble protein and insoluble bound protein, and the wash were analyzed by SDS-PAGE. The gels were stained with Coomassie blue and the differences in the amounts of His6-PASTA in the two fractions were determined by measurement of the appropriate bands using ImageJ (NIH).

B1: His6-PASTABs: His-tagged C-terminal extracellular fragment of B. subtilis PrkC, residues 357-648, three PASTA repeats (protein)
chain: MLIGKRISGRYQILRVIGGGGMANVYLAEDIILDREVAIKILRFDYANDNEFIRRFRREAQSASSLDHPNIVSIYDLGEEDDIYYIVMEYVEGMTLKEYITANGPLHPKEALNIMEQIVSAIAHAHQNQIVHRDIKPHNILIDHMGNIKVTDFGIATALSSTTITHTNSVLGSVHYLSPEQARGGLATKKSDIYALGIVLFELLTGRIPFDGESAVSIALKHLQAETPSAKRWNPSVPQSVENIILKATAKDPFHRYETAEDMEADIKTAFDADRLNEKRFTIQEDEEMTKAIPIIKDEELAKAAGEKEAEVTTAQENKTKKNGKRKKWPWVLLTICLVFITAGILAVTVFPSLFMPKDVKIPDVSGMEYEKAAGLLEKEGLQVDSEVLEISDEKIEEGLMVKTDPKADTTVKEGATVTLYKSTGKAKTEIGDVTGQTVDQAKKALKDQGFNHVTVNEVNDEKNAGTVIDQNPSAGTELVPSEDQVKLTVSIGPEDITLRDLKTYSKEAASGYLEDNGLKLVEKEAYSDDVPEGQVVKQKPAAGTAVKPGNEVEVTFSLGPEKKPAKTVKEKVKIPYEPENEGDELQVQIAVDDADHSISDTYEEFKIKEPTERTIELKIEPGQKGYYQVMVNNKVVSYKTIEYPKDE
% of total protein associated with the insoluble (peptidoglycan-bound) fraction (50 μg protein, ˜5 mg purified peptidoglycan): Approximately 40%
binding to cell wall (result in words): binds to cell wall much better than Yycl
binding to cell wall (result in words) (listed as extracellular domain of PrkC): bound to cell wall much better than a control protein
